The values below come from patent US20250011433A1 (GLIKNIK, published 2025).

To fix the notation:
T1: FcγRIIb (UniProt P31994 46-217, limits assumed)
T1 sequence (looked up): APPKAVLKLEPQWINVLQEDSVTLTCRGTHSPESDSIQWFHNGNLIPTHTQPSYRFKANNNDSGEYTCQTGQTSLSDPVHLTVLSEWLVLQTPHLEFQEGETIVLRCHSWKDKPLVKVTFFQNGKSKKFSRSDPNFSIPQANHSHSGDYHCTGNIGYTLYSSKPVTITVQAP

T2: FcγRIIa (UniProt P12318 36-218, limits assumed)
T2 sequence (looked up): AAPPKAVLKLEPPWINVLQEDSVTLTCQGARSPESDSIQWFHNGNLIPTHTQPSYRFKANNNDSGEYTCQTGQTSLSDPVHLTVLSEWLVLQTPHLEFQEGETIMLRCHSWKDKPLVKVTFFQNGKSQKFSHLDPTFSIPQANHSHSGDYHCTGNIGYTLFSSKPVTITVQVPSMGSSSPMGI

B1: G994 (Fc fusion)
chain: EPKSCDKTHTCPPCPAPPLLRGPSVFLFPPKPKDTLMISRTPEVTCVVVDVEFEDPEVKFNWYVDGVEVHNAKTKPREEQYNSTYRVVSVLTVLHQDWLNGKEYKCKVTNKALPAPIEKTISKAKGQPREPQVYTLPPSRDELTKNQVSLTCLVKGFYPSDIAVEWESNGQPENNYKTTPPVLDSDGSFFLYSKLTVDKSRWQQGNVFSCSVMHEALHNHYTQKSLSLSPGKERKCCVECPPCP
notes: G045c background, E233P/G236R/S267E/H268F/S324T; leader 1-20 cleaved; also called G994 (DEL); G994 (EEM)
B2: G998 (Fc fusion)
chain: B1 chain with P18E, R21G, N82A
notes: G045c background, S267E/H268F/N297A/S324T; leader 1-20 cleaved; also called G998 (DEL); G998 (EEM)
B3: G1042 (Fc fusion)
chain: B1 chain with L113F
notes: G045c background, E233P/G236R/S267E/H268F/S324T/L328F; leader 1-20 cleaved
B4: G1043 (Fc fusion)
chain: B1 chain with P18E, R21G, P23D, D50G, D141E, L143M
notes: G045c background, P238D/D265G/S267E/H268F/S324T; leader 1-20 cleaved
B5: G1050 (Fc fusion)
chain: EPKSCDKTHTCPPCPAPPVAGPSVFLFPPKPKDTLMISRTPEVTCVVVDVEFEDPEVKFNWYVDGVEVHNAKTKPREEQYASTYRVVSVLTVLHQDWLNGKEYKCKVTNKAFPAPIEKTISKAKGQPREPQVYTLPPSRDELTKNQVSLTCLVKGFYPSDIAVEWESNGQPENNYKTTPPVLDSDGSFFLYSKLTVDKSRWQQGNVFSCSVMHEALHNHYTQKSLSLSPGKERKCCVECPPCP
notes: G045c background, E233P/L234V/L235A/S267E/H268F/N297A/S324T/L328F, G236 deleted; leader 1-20 cleaved
B6: G999 (Fc fusion)
chain: ERKCCVECPPCPEPKSCDKTHTCPPCPAPELLRGPSVFLFPPKPKDTLMISRTPEVTCVVVDVEFEDPEVKFNWYVDGVEVHNAKTKPREEQYNSTYRVVSVLTVLHQDWLNGKEYKCKVTNKALPAPIEKTISKAKGQPREPQVYTLPPSRDELTKNQVSLTCLVKGFYPSDIAVEWESNGQPENNYKTTPPVLDSDGSFFLYSKLTVDKSRWQQGNVFSCSVMHEALHNHYTQKSLSLSPGK
notes: G019 background, G236R/S267E/H268F/S324T
B7: G1001 (Fc fusion)
chain: B6 chain with R33G, N94A, D153E, L155M
notes: G019 background, S267E/H268F/S324T/N297A
B8: G1044 (Fc fusion)
chain: B1 chain with P18E, R21G, P23D, D50C
B9: G1047 (Fc fusion)
chain: B1 chain with P18E, R21G, P23D, L113F
B10: G1045 (Fc fusion)
chain: B1 chain with P18E, R21G, P23D, D50P
B11: G1048 (Fc fusion)
chain: B6 chain with L125F, D153E, L155M
notes: G019 background, G236R/L328F/S267E/H268F/S324T
B12: G1024 (Fc fusion)
chain: B6 chain with R33G, P35D, D153E, L155M
notes: G019 background, P238D/S267E/H268F/S324T
B13: G1031 (Fc fusion)
chain: B1 chain with D50A, N82A
B14: G1022 (Fc fusion)
chain: B5 chain with F112L
notes: G045c background, E233P/L234V/L235A/S267E/H268F/N297A/S324T, G236 deleted; leader 1-20 cleaved

Changes are numbered by the printed parent chain. Names may count otherwise.

Chain of FcγRIIIa (P08637 17-208 limits assumed): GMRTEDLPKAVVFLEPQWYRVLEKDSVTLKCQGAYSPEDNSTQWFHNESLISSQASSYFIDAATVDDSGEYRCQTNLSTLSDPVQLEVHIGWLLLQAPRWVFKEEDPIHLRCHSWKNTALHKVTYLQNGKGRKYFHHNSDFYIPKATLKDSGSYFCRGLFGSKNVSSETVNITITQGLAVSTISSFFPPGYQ
T3 sequence (P12314 16-288 limits assumed): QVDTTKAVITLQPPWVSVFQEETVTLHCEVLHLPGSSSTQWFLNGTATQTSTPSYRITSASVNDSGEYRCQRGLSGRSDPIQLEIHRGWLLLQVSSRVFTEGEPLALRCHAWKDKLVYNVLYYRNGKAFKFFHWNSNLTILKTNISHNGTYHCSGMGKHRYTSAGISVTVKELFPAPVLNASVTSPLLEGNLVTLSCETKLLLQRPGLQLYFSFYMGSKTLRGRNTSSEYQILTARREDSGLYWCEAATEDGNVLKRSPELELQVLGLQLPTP
T4 sequence (P02745 23-245 limits assumed, chain 1 of 3): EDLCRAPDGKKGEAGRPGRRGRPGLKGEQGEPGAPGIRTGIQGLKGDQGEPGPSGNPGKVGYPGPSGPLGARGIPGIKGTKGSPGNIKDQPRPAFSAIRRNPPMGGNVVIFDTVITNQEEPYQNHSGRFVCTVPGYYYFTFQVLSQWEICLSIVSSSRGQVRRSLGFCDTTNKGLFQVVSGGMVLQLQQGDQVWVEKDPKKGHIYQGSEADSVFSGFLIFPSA
T4 sequence (P02746 28-253 limits assumed, chain 2 of 3): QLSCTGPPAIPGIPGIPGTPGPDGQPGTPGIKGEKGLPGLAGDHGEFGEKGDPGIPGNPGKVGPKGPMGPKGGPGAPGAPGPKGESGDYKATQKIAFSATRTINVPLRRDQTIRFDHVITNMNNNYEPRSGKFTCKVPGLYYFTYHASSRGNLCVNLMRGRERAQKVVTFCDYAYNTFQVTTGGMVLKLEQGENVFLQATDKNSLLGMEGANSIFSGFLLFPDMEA
T4 sequence (P02747 29-245 limits assumed, chain 3 of 3): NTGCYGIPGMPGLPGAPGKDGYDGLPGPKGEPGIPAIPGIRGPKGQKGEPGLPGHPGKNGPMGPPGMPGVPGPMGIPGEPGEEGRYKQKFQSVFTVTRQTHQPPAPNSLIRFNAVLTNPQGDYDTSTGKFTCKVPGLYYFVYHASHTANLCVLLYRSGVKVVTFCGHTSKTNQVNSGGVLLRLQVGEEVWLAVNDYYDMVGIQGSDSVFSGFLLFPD

The first assay has as its target T3, FcγRI (UniProt P12314 16-288).
T3 construct: also called CD64
In words: BLI (Octet). How it is done:
(§1) Binding of complement-preferential stradomers or parent stradomer G045c to FcγRI, FcγRIIb, FcγRIIIa, FcγRIIa, or FcRn was assessed. RU values of dissociation were measured by biolayer interferometry using a ForteBio Octet instrument. His-tagged receptor proteins were bound to the sensor tip in 1× kinetic analysis buffer from ForteBio after which the on rate of the receptor/protein was measured by transferring the sensor tip to a 1× kinetics buffer containing the purified stradomer of choice. Off rate was measured by transferring the sensor tip to a 1× kinetics buffer, and RU value was calculated from the measured maximum binding using the ForteBio software. Biolayer interferometry detects the binding between a ligand immobilized on the biosensor tip surface and an analyte in solution. When binding occurs it produces an increase in optical thickness at the biosensor tip, which results in a wavelength shift (detected as a response unit of “RU”). The maximum binding level (RU max) is the maximum possible amount of sample binding at equilibrium that saturates the amount of ligand on the sensor surface. The RU 300 is the residual sample binding after 300 seconds of dissociation and is useful to characterize the rate of dissociation of the test article from the test ligand.
(In general: BLI is a label-free optical method that tracks binding on a fibre tip over time.)
With B1, the binding result was “binds”.
B2: the binding result is “binds”.
In the case of B3, the binding result is listed as “binds”.
Turning to B4, the binding result is listed as “binds”.

Another assay has as its target T1, FcγRIIb. In words: BLI (Octet). How it is done:
as §1
Regarding B1, the binding result was “binds”.
With B2, the binding result is recorded as “binds”.
As to B3, the binding result is on record as “binds”.
The same measure, in the same setting: then B4, with “binds”.
Consider B5, for which the binding result is given as “binds”.

The next assay addresses T3, FcγRI. In words: BLI (Octet). This is another data set of the same source.
As to B6, the binding result is reported as “binds”.
As to B7, the binding result is given as “binds”.
Still for that read-out and setting: in the case of B8 it was “binds”; in that of B9, “binds”.
In the case of B10, the binding result is “binds”.

The target of the next assay is T1, FcγRIIb. Kind of assay: BLI (Octet). This is another data set of the same source.
B6: the binding result is listed as “binds”.
Turning to B9, the binding result is recorded as “binds”.

Another assay addresses T4, C1q (UniProt P02745 23-245; P02746 28-253; P02747 29-245).
T4 construct: bought C1q coated on ELISA plates at 1 µg/ml; also called complement C1q; complement factor C1q
Kind of assay: ELISA on coated C1q. For orientation: An ELISA detects its analyte on a solid surface through an enzyme-linked reagent.
For B6, the binding result is listed as “no binding”.
On to B7, for which the binding result is “no binding”.
Same read-out and setting: then B11, with “no binding”; and B8, with “no binding”.

For a further assay, the target named is T4, C1q. In words: ELISA on coated C1q. The source holds these as a separate data set. Here is the method:
For C1q binding, 96 well plates were coated with C1q (Sigma Cat #: C1740 1 μg/ml) overnight in PBS. After coating, plates were washed 3 times with standard wash buffer (iX PBS+0.05% Tween 20) and blocked with blocking buffer (1% BSA+1× PBS+0.05% Tween 20) for 2 hours at RT. Following blocking, plates were incubated with compound diluted in blocking buffer 100 μL/well and washed 3 times with standard washing buffer. C1q-bound compound was detected by incubation with 1:5000 biotinylated mouse anti-human IgG1(Cat #555869, BD Biosciences) and Streptavidin-HRP (Cat #: 7100-05 Southern Biotech) (100 μl/well) for 1 hour at room temperature followed by washing 3 times with washing buffer, after which color was developed using the standard TMB method according to manufacturer's protocol for 15 minutes. Absorbance was read at 450 nm.
B1: the binding result is “binds”.
For the molecule B2, the binding result is given as “binds”.
Take B3: the binding result is recorded as “binds”.
As for B4, the binding result is reported as “binds”.
For B5, the binding result was “binds”.

The target of the next assay is T4, C1q. In words: ELISA on coated C1q. The source holds these as a separate data set.
As for B12, the binding result is on record as “no binding”.
Consider B13, for which the binding result is on record as “no binding”.
For B10, the binding result is given as “no binding”.

The target of another assay is T3, FcγRI. Kind of assay: BLI (Octet); legend: - indicates no binding. Here is the method:
as §1
Regarding B14, the binding result is listed as “no binding”.
Consider B5, for which the binding result is “no binding”.

The target of a further assay is T2, FcγRIIa. Kind of assay: BLI (Octet); legend: - indicates no binding. Here is the method: as §1
With B1, the binding result is listed as “no binding”.
Turning to B2, the binding result is listed as “no binding”.

For the next assay, the target named is FcγRIIIa (UniProt P08637 17-208). Kind of assay: BLI (Octet); legend: - indicates no binding. Here is the method:
as §1
Consider B1, for which the binding result is reported as “no binding”.
Turning to B2, the binding result is reported as “no binding”.
Turning to B3, the binding result was “no binding”.
Same read-out and setting: then B4, with “no binding”; and B14, with “no binding”; and B5, with “no binding”.
